This note sets out measurements from the supplement of paper PMC7125110.

B1: glmS ribozyme (parent)
chain: AUAAAAGCGCCAGAACUACAGAAAUGUAGUUGACGAGGAGGAGGUUUAUCGAAUUUUCGGCGGAUGCCUCCAAA

± gives the standard error. For some assays here: Variants at the floor of the assay were thinned out.

Settings in all cases: with glucosamine-6-phosphate
The variants in data set [1] derive from B1. The data set is described as follows: kcat; higher = faster cleavage; RNA array. The procedure, abridged:
(§1)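 Sequenced MiSeq chips were the platform: E. coli RNA polymerase transcribed barcoded ribozyme variants on them in situ, and a hybridised Cy3 probe tracked these at 37 °C. After glucosamine-6-phosphate (40 μM to 10 mM) in HEPES/KCl/Mg(OAc)2 buffer was flowed in, tiles were imaged over ~14 h. Signals normalised to baseline and to non-cleaving reference variants were reduced to per-tile medians and fit to one- or two-exponential decays to obtain kobs. kcat and KM were derived through weighted Michaelis–Menten fits across concentrations.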

Variants of B1 are the subject of data set [2]. The data set is described as follows: KM; higher = weaker cofactor use; RNA array. The method, boiled down:
as §1

In data set [3] the parent is B1. The data set is described as follows: self-cleavage kobs at 160 uM GlcN6P; higher = faster cleavage; RNA array. The procedure, abridged:
as §1

Data set [4] covers variants of B1. The data set is described as follows: self-cleavage kobs at 640 uM GlcN6P; higher = faster cleavage; RNA array. The method, boiled down:
as §1

Data set [5] covers variants of B1. The data set is described as follows: self-cleavage kobs at 2500 uM GlcN6P; higher = faster cleavage; RNA array. The procedure, abridged:
as §1

Variants of B1 are the subject of data set [6]. The data set is described as follows: self-cleavage kobs at 10000 uM GlcN6P; higher = faster cleavage; RNA array. The method, boiled down:
as §1

Variants of B1 are the subject of data set [7]. The data set is described as follows: self-cleavage kobs at 40 uM GlcN6P; higher = faster cleavage; RNA array. The procedure, abridged:
as §1

As for U30G U46C, in the data set with glucosamine-6-phosphate [1], the turnover number (kcat) (usually the maximal rate divided by the concentration of active sites) was determined as 0.000516 ± 3.6e-05 s⁻¹. In the data set with glucosamine-6-phosphate [2], the KM (usually the substrate concentration at which the rate is half of its maximum) amounted to 1240 ± 170 µM. Moreover, in the data set with glucosamine-6-phosphate [3], the “self-cleavage kobs at 160 uM GlcN6P” value was determined as 6.38e-05 ± 2.1e-05 s⁻¹. In addition, in the data set with glucosamine-6-phosphate [4], the “self-cleavage kobs at 640 uM GlcN6P” value worked out at 0.000167 ± 3.1e-05 s⁻¹. Also, the “self-cleavage kobs at 2500 uM GlcN6P” value with glucosamine-6-phosphate [5] was 0.000377 ± 7.4e-05 s⁻¹. Further, the “self-cleavage kobs at 10000 uM GlcN6P” value with glucosamine-6-phosphate [6] is 0.000443 ± 8.5e-05 s⁻¹.

With C10U G59U, the turnover number (kcat) with glucosamine-6-phosphate [1] was determined as 2.6e-05 ± 1.8e-06 s⁻¹. Besides, the Michaelis-Menten constant (KM) with glucosamine-6-phosphate [2] worked out at 2000 ± 700 µM. Besides, in the data set with glucosamine-6-phosphate [6], the “self-cleavage kobs at 10000 uM GlcN6P” value was 2.16e-05 ± 1.1e-05 s⁻¹.

With G41A U47C, the kcat in the data set with glucosamine-6-phosphate [1] was 7.04e-05 ± 3.2e-07 s⁻¹. Also, in the data set with glucosamine-6-phosphate [2], the Michaelis constant (KM) was determined as 1800 ± 30 µM. The “self-cleavage kobs at 2500 uM GlcN6P” value with glucosamine-6-phosphate [5] came to 4.08e-05 ± 1e-05 s⁻¹. Further, the “self-cleavage kobs at 10000 uM GlcN6P” value in the data set with glucosamine-6-phosphate [6] amounted to 5.98e-05 ± 8.4e-06 s⁻¹.

Take G41C A53G: the kcat with glucosamine-6-phosphate [1] came to 0.000359 ± 9.5e-05 s⁻¹. Besides, the “self-cleavage kobs at 160 uM GlcN6P” value with glucosamine-6-phosphate [3] worked out at 5.35e-05 ± 1.4e-05 s⁻¹. Also, in the data set with glucosamine-6-phosphate [4], the “self-cleavage kobs at 640 uM GlcN6P” value was 0.000157 ± 3.2e-05 s⁻¹. In the data set with glucosamine-6-phosphate [5], the “self-cleavage kobs at 2500 uM GlcN6P” value stood at 0.000193 ± 4.2e-05 s⁻¹. Also, the “self-cleavage kobs at 10000 uM GlcN6P” value in the data set with glucosamine-6-phosphate [6] was determined as 0.000438 ± 7.1e-05 s⁻¹.

Take U30A A42U: the catalytic constant (kcat) with glucosamine-6-phosphate [1] amounted to 1.63e-05 ± 1.2e-07 s⁻¹. Besides, the KM in the data set with glucosamine-6-phosphate [2] amounted to 588 ± 46 µM. Further, the “self-cleavage kobs at 160 uM GlcN6P” value in the data set with glucosamine-6-phosphate [3] is < 1e-05 s⁻¹. Moreover, the “self-cleavage kobs at 10000 uM GlcN6P” value with glucosamine-6-phosphate [6] is 1.54e-05 ± 7.6e-06 s⁻¹.

Take U49G U56C: the turnover number (kcat) with glucosamine-6-phosphate [1] worked out at 0.000112 ± 1.1e-05 s⁻¹. In the data set with glucosamine-6-phosphate [4], the “self-cleavage kobs at 640 uM GlcN6P” value stood at 7.28e-05 ± 2.5e-05 s⁻¹. Further, the “self-cleavage kobs at 2500 uM GlcN6P” value with glucosamine-6-phosphate [5] was found to be 0.000127 ± 2.5e-05 s⁻¹. In the data set with glucosamine-6-phosphate [6], the “self-cleavage kobs at 10000 uM GlcN6P” value was 0.000103 ± 1.2e-05 s⁻¹.

On to G38A U49A C58U, for which, in the data set with glucosamine-6-phosphate [1], the catalytic constant (kcat) is 2.37e-05 ± 3.2e-06 s⁻¹. For the same variant, in the data set with glucosamine-6-phosphate [2], the Michaelis-Menten constant (KM) stood at 862 ± 380 µM.

Turning to A42G C71U, in the data set with glucosamine-6-phosphate [1], the turnover number (kcat) is 0.0155 ± 0.0039 s⁻¹. Besides, the Michaelis-Menten constant (KM) with glucosamine-6-phosphate [2] is 732 ± 250 µM. The “self-cleavage kobs at 40 uM GlcN6P” value with glucosamine-6-phosphate [7] came out at 0.000864 ± 0.0001 s⁻¹. The “self-cleavage kobs at 160 uM GlcN6P” value with glucosamine-6-phosphate [3] came to 0.00294 ± 0.00058 s⁻¹. Besides, the “self-cleavage kobs at 640 uM GlcN6P” value with glucosamine-6-phosphate [4] amounted to 0.0053 ± 0.0011 s⁻¹. For the same variant, the “self-cleavage kobs at 2500 uM GlcN6P” value with glucosamine-6-phosphate [5] came out at 0.0147 ± 0.0047 s⁻¹. The “self-cleavage kobs at 10000 uM GlcN6P” value with glucosamine-6-phosphate [6] turned out to be 0.0178 ± 0.0034 s⁻¹.

Consider C11A U30G, for which the turnover number (kcat) with glucosamine-6-phosphate [1] worked out at 0.000664 ± 7.4e-05 s⁻¹. The Michaelis constant (KM) in the data set with glucosamine-6-phosphate [2] stood at 6140 ± 920 µM. Besides, in the data set with glucosamine-6-phosphate [4], the “self-cleavage kobs at 640 uM GlcN6P” value was determined as 6.39e-05 ± 1.1e-05 s⁻¹. In addition, the “self-cleavage kobs at 2500 uM GlcN6P” value with glucosamine-6-phosphate [5] was 0.000172 ± 5.6e-05 s⁻¹. For the same variant, the “self-cleavage kobs at 10000 uM GlcN6P” value with glucosamine-6-phosphate [6] was determined as 0.000422 ± 9.6e-05 s⁻¹.

For the variant U49G A53U, the kcat with glucosamine-6-phosphate [1] is 0.00103 ± 0.00011 s⁻¹. Moreover, the KM in the data set with glucosamine-6-phosphate [2] is 4490 ± 760 µM. In addition, the “self-cleavage kobs at 160 uM GlcN6P” value with glucosamine-6-phosphate [3] came out at 2.84e-05 ± 8.8e-06 s⁻¹. In addition, the “self-cleavage kobs at 640 uM GlcN6P” value with glucosamine-6-phosphate [4] was 0.00014 ± 1.9e-05 s⁻¹. The “self-cleavage kobs at 2500 uM GlcN6P” value with glucosamine-6-phosphate [5] is 0.000364 ± 5.6e-05 s⁻¹. The “self-cleavage kobs at 10000 uM GlcN6P” value with glucosamine-6-phosphate [6] amounted to 0.000709 ± 8.3e-05 s⁻¹.

C10U A52C C61A U69A: in the data set with glucosamine-6-phosphate [1], the catalytic constant (kcat) is < 1e-05 s⁻¹.

Regarding G29C G32U A33U C50G U56G G66C U69C, in the data set with glucosamine-6-phosphate [1], the kcat came out at 1.64e-05 ± 5.6e-06 s⁻¹.

Take G32A C67A: in the data set with glucosamine-6-phosphate [1], the catalytic constant (kcat) was 0.000956 ± 0.00011 s⁻¹. Moreover, the KM with glucosamine-6-phosphate [2] was found to be 2730 ± 630 µM. The “self-cleavage kobs at 160 uM GlcN6P” value with glucosamine-6-phosphate [3] is 5.05e-05 ± 1.6e-05 s⁻¹. For the same variant, the “self-cleavage kobs at 640 uM GlcN6P” value in the data set with glucosamine-6-phosphate [4] came out at 0.000168 ± 3.4e-05 s⁻¹. The “self-cleavage kobs at 2500 uM GlcN6P” value with glucosamine-6-phosphate [5] stood at 0.000586 ± 0.00011 s⁻¹. Moreover, in the data set with glucosamine-6-phosphate [6], the “self-cleavage kobs at 10000 uM GlcN6P” value is 0.000728 ± 8.2e-05 s⁻¹.

In the case of A52G C70U C71G, the catalytic constant (kcat) with glucosamine-6-phosphate [1] worked out at 2.63e-05 ± 1.1e-05 s⁻¹. In addition, the “self-cleavage kobs at 2500 uM GlcN6P” value in the data set with glucosamine-6-phosphate [5] was determined as 4.78e-05 ± 1.9e-05 s⁻¹.

As to G43C U45G, the kcat in the data set with glucosamine-6-phosphate [1] was determined as 0.00237 ± 0.00082 s⁻¹. Moreover, in the data set with glucosamine-6-phosphate [7], the “self-cleavage kobs at 40 uM GlcN6P” value amounted to 8.35e-05 ± 1.2e-05 s⁻¹. In addition, the “self-cleavage kobs at 160 uM GlcN6P” value with glucosamine-6-phosphate [3] came out at 0.000135 ± 2.3e-05 s⁻¹. The “self-cleavage kobs at 640 uM GlcN6P” value with glucosamine-6-phosphate [4] was determined as 0.000694 ± 0.00012 s⁻¹. Also, the “self-cleavage kobs at 2500 uM GlcN6P” value with glucosamine-6-phosphate [5] is 0.00109 ± 0.00024 s⁻¹. Also, the “self-cleavage kobs at 10000 uM GlcN6P” value with glucosamine-6-phosphate [6] amounted to 0.00211 ± 0.00027 s⁻¹.

U46C U55C: the turnover number (kcat) in the data set with glucosamine-6-phosphate [1] was determined as 0.00703 ± 0.0025 s⁻¹. Also, the KM with glucosamine-6-phosphate [2] is 3630 ± 1700 µM. Also, in the data set with glucosamine-6-phosphate [7], the “self-cleavage kobs at 40 uM GlcN6P” value came to 0.000129 ± 1.9e-05 s⁻¹. Moreover, the “self-cleavage kobs at 160 uM GlcN6P” value in the data set with glucosamine-6-phosphate [3] was 0.000217 ± 4.2e-05 s⁻¹. For the same variant, the “self-cleavage kobs at 640 uM GlcN6P” value in the data set with glucosamine-6-phosphate [4] was 0.00108 ± 0.00013 s⁻¹. The “self-cleavage kobs at 2500 uM GlcN6P” value with glucosamine-6-phosphate [5] stood at 0.00291 ± 0.00042 s⁻¹. The “self-cleavage kobs at 10000 uM GlcN6P” value in the data set with glucosamine-6-phosphate [6] came to 0.00515 ± 0.00071 s⁻¹.

For the variant A42G C50A, the turnover number (kcat) with glucosamine-6-phosphate [1] came to 4.52e-05 ± 2.6e-06 s⁻¹. Moreover, the Michaelis constant (KM) in the data set with glucosamine-6-phosphate [2] was 7070 ± 920 µM.

For U47G C58U, the kcat with glucosamine-6-phosphate [1] stood at 8.14e-05 ± 1.6e-05 s⁻¹. The “self-cleavage kobs at 2500 uM GlcN6P” value in the data set with glucosamine-6-phosphate [5] turned out to be 3.07e-05 ± 1.2e-05 s⁻¹. Besides, the “self-cleavage kobs at 10000 uM GlcN6P” value in the data set with glucosamine-6-phosphate [6] is 6.32e-05 ± 8.6e-06 s⁻¹.
